Experimental data reported in the supplement of paper PMC12764529.
± gives the half width of the 95% confidence interval.

Experiments:
[1] = folding stability dG unfold from trypsin proteolysis; higher = more stable
Method in brief: (§1)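 Only designs with AlphaFold2 dimer inter-PAE above 15 were retained; each was a mini-protein under 80 residues with no cysteine, in a PA-tagged cDNA display construct. After digestion with trypsin and chymotrypsin and sequencing, K50 was inferred by Bayesian fitting of counts, and unfolding free energy was derived per protease or combined against a sequence-predicted unfolded-state K50 and a shared folded-state K50.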

[2] = folding stability dG unfold from chymotrypsin proteolysis; higher = more stable
Method in brief: as §1

[3] = folding stability dG unfold (combined trypsin and chymotrypsin); higher = more stable
Method in brief: as §1

Row | Sequence | folding stability dG unfold [1] [kcal/mol] | folding stability dG unfold [2] [kcal/mol] | folding stability dG unfold [3] [kcal/mol]
1 | SAGMKVTTFTTPTRTVTVTLTPDGTVTVTVTDPSGNPTVTAPDGTPVASTTAPDGTTTFTLDPALFAAASAG [r5_457_JUSTAS] | 0.717 ± 0.047 | 0.965 ± 0.1 | 0.896 ± 0.073
2 | SAGMKYTFKILVKADSPEEAIETAKKLVEKWLKENFPELPEGVKIKEIKVEPLPDDYYLVTITVEFDPESAG [r5_320_TrMRF] | 4.2 ± 0.19 | 5.51 ± 0.091 | 5.49 ± 0.1
3 | SAGMLRELLDNPDVKRLEIVIFIPEEDLSEEDRERARERARELAERLRELLRERGYDVEIEVRIVRLPPSAG [r5_408_TrROS_Hall] | 3.5 ± 0.11 | 3.22 ± 0.062 | 3.39 ± 0.088
4 | SAGMLRVDIEIPPAFRKMLKNAPPGETVMFELPIKIKIEYYQPDGGKPEPKEHEQPFPVQFMVVLPPDGSAG [r5_946_TrROS] | 2.14 ± 0.16 | 3.18 ± 0.12 | 2.84 ± 0.2
5 | SAGMLVRVTLKYPDGKTIKIPFPYAKILSEETSNNETTFTIDSPESADKAVEAIKKEYPDIEVKVEPLESAG [r5_453_JUSTAS] | 1.67 ± 0.022 | 2.46 ± 0.035 | 2.23 ± 0.058
6 | SAGMMKVRIKIEVTRVEYDEETGELKEETRTIEIPIEAESEEEAEELAKKLAEELPEEEVKIVEIEPLSAGG [r19_209_TrROS_Hall] | 1.1 ± 0.096 | 1.42 ± 0.11 | 1.22 ± 0.22
7 | SAGMNLKIEVSVTPQEFELVEKDEEGNLIKPVKQKATVVTTTTTLPDGTVTTTRSLFLDGELVATSTGSAGG [r19_44_JUSTAS] | 0.716 ± 0.015 | 1.03 ± 0.044 | 0.972 ± 0.098
8 | SAGMNTITFEYKTKDHYVKIDVQVYPPNEGYIRISIEIYNKDGEPKKEVKITIPAPPGDPAVRDFLDQFSAG [r5_964_TrROS] | 2.77 ± 0.32 | 2.74 ± 0.047 | 2.73 ± 0.35
9 | SAGMPAETETTVTITTETIDEKGNLSTKTYTATVRTLPDGRVLVYLENELLLIDPATGEVVAREPNYKPSAG [r14_821_JUSTAS] | 2.3 ± 0.025 | 2.264 ± 0.015 | 2.28 ± 0.051
10 | SAGMPEIVKVKVKIKVNIPVFDKNGKLIGLIPKEYEFEIEAPYEEIKNIIESLPENAEVVEILEIENESAGG [r19_114_TrMRF] | 4.27 ± 0.68 | 2.29 ± 0.29 | 3.29 ± 0.89
11 | SAGMPEVKLLPKPDGSLVLVVVFEDKAIIIEFPPDGEGKIYIIDLKNNKITEIPFPSEDPLKAIKEALSSAG [r5_674_TrMRF] | 2.35 ± 0.086 | 3.99 ± 0.21 | 3.72 ± 0.27
12 | SAGMPIRVRLLVERPALDPETGEPVVERREVVLTLHPEEIASGIPVEELAKELEKAFPGAKVTVLEVSSAGG [r19_110_TrMRF] | 3.88 ± 0.11 | 3.77 ± 0.044 | 3.81 ± 0.047
13 | SAGMPKTTVETEIRFVETEEGIEAVAEVRTETETRVVVIPGHLGPEEAIEVLEKLLEEEGLELSRVEIGSAG [r5_305_TrMRF] | 0.646 ± 0.032 | 0.353 ± 0.038 | 0.542 ± 0.082
14 | SAGMPVEIPLVIRLTRYRDLPDGPELAEVRELPLPLRADPSELDNPELLAFIREALEKLPDEIREVEIASAG [r5_849_TrMRF] | -0.255 ± 0.27 | 0.757 ± 0.11 | 0.479 ± 0.17
15 | SAGMSFTVTTVGSPGPTTPRVVIEPPDRVVVISRLPDGSYEVRYYDPSPPVELERRRLAPEEAIAELLSAGG [r19_188_JUSTAS] | 0.385 ± 0.095 | 0.647 ± 0.098 | 0.575 ± 0.077
16 | SAGMSITIESDTNAPPDLPDIGEEEKLALAEELKEKALADPRYPDEEVVIVRPFKTPGGARWTITVVVSAGG [r19_132_JUSTAS] | 1.31 ± 0.042 | 1.29 ± 0.24 | 1.32 ± 0.17
17 | SAGMTFTTVTVERPLGSPEGKPVSLEEVEEYAKKVAEELEPNGFPVENITIELLPDGTAVITMTIKKPLSAG [r14_470_JUSTAS] | 2.03 ± 0.042 | 1.86 ± 0.044 | 1.94 ± 0.056
18 | SAGMTFTVDVEEETFSETKVIRVPVEYDDPALVDVAAAEIREALGIPESESVTVEREPRRATITIVIPASAG [r14_804_JUSTAS] | 0.267 ± 0.031 | 0.954 ± 0.029 | 0.743 ± 0.051

Row | Sequence | folding stability dG unfold [1] [kcal/mol] | folding stability dG unfold [2] [kcal/mol] | folding stability dG unfold [3] [kcal/mol]
19 | SAGMTIEVEYTFPPGNPEEAEKRAEEIAEELKPKPLPNITIEISREPVVDPNSDATTTRYTFTITAEPKSAG [r5_49_JUSTAS] | 0.821 ± 0.051 | 1.19 ± 0.14 | 1.02 ± 0.19
20 | SAGMTITLDGVEITVERVRDEETGEWYYRVTVTVTTEDGEKVTITVTVPEGMTPEQVEALARELAEALASAG [r5_704_TrROS_Hall] | 5.12 ± 0.42 | 4.37 ± 0.096 | 4.54 ± 0.19
21 | SAGMTITVESLEDALALAEELAEKYPGLKVTVEVRLSPDGKTVEVRVTIEPAPPVKVVDPETGEEVEEESAG [r5_870_TrROS_Hall] | 3.72 ± 0.36 | 2.3 ± 0.12 | 3.43 ± 0.3
22 | SAGMTITVPGNVTVNVVITAYKFDENGNLIGPYTLVKPITVPENSTITIDLPNDEPNVVIIEIKAIPASAGG [r19_295_TrMRF] | 3.16 ± 0.15 | 4.81 ± 0.073 | 4.42 ± 0.18
23 | SAGMTLTVVLPVPEEMTEEEAAEILRAYVDAVVAELLAGDAVAVPKEIVVDKETGTAVAKVELFIPPDLSAG [r5_146_TrMRF] | 2.59 ± 0.064 | 2.56 ± 0.027 | 2.58 ± 0.068
24 | SAGMTQTLEVSGPSVKVTLTVAPDGSVTITTTDPNGNTTTTSLYVPPGVPVTIPLPFGGTTITATVTPASAG [r5_237_JUSTAS] | 2.38 ± 0.087 | 2.11 ± 0.071 | 2.36 ± 0.09
25 | SAGMTSVLTLEEVSPEELRAKIDEALATLPEGTIFVLPSEELAEVVKELHPGVPVVVRDEATGRLTEVGSAG [r5_391_JUSTAS] | 1.17 ± 0.041 | 1.67 ± 0.1 | 1.5 ± 0.086
26 | SAGMTTEKSPSGVGRVYLPTRTLELELLPDGTVVLRFPDGTEVVHPLSPEEAAAVRAELRARGLVVRPLSAG [r5_753_JUSTAS] | 1.59 ± 0.062 | 1.81 ± 0.092 | 1.7 ± 0.1
27 | SAGMTTTVTLKAPDGTTATVTIPPDGNAVMTIETPEGTSTRTVPVPADVSIEEILKEYPNYTIVSREAASAG [r5_259_JUSTAS] | 1.26 ± 0.037 | 2.05 ± 0.021 | 1.82 ± 0.041
28 | SAGMTVTFTLDFPANGGPITITVYHGDKAEEITVPKNETVTITVDLDPNDGLTIRAHYPDGSYVEFPIGSAG [r5_187_TrMRF] | 3.46 ± 0.16 | 4.65 ± 0.053 | 4.5 ± 0.09
29 | SAGMTVTVTLNYPTPGGPVTVRVLRGDEEEVVTVPPTETLTITVTLDPDSGATIEVFFPDGSSKTYPLGSAG [r5_187_JUSTAS] | 2.81 ± 0.1 | 3.76 ± 0.14 | 3.35 ± 0.18
30 | SAGMTYTEKVFTSEVTLPEIGAKITITTTVKTPPSGETEPTVEVTFDLPETASEEVVKAVLEELNIPVESAG [r5_486_JUSTAS] | -0.411 ± 0.2 | 1.13 ± 0.066 | 0.628 ± 0.38
31 | SAGMVEITVEVKEDGTVIVTIPATSPEEALEVAEEVARELAKQFGAEHTEFVIEPVPDDTLVLLVPIKKSAG [r5_772_TrMRF] | 0.389 ± 0.065 | 1.26 ± 0.11 | 0.874 ± 0.23
32 | SAGMVEVSVTVSPRADGTITVTITLTKTFPVKDSKGNLYLETTTKTVTVPVTSLEEAPVIVKEVIDKLSAGG [r19_218_JUSTAS] | 3.82 ± 0.19 | 3.23 ± 0.14 | 3.54 ± 0.15
33 | SAGMVIPYKELKKNLSEEELIELAKEAAEKLGYKPKKIEIKETPEPDKYIVIDVIDENGNKHPIVFPSKSAG [r5_745_TrMRF] | 0.69 ± 0.036 | 0.374 ± 0.17 | 0.542 ± 0.088
34 | SAGMVKIEIEKKEDGEILITITAPSEEELKKLAEELAKELAKKLGIEEIEVKVEKLENGEYKVTIRIKKSAG [r5_772_TrROS_Hall] | 2.99 ± 0.14 | 3.09 ± 0.26 | 2.99 ± 0.23
35 | SAGMVLKITVKDKKTKEEREIVIEIPEDDPELKKLGIKSPEELAKKLAEELKKEGIEVEEVKVEAYPLPSAG [r5_722_TrROS_Hall] | 1.23 ± 0.096 | 2.04 ± 0.084 | 1.78 ± 0.25
36 | SAGMVTITVETTDPQGNWTTKTYEFPLDPGYSLDDVIKRHSPPNAKKYEVTKTEPPPPVTEIKLTVEPSSAG [r5_227_JUSTAS] | 0.698 ± 0.082 | 1.1 ± 0.19 | 0.822 ± 0.46
